Measurements taken from patent US20170355766A1 (Xencor, published 2017).
Changes are numbered by the printed parent chain. Names may count otherwise.

T1: human FcγRIIb receptor protein (R&D Systems) (human, UniProt P31994 46-217)
T1 construct: Analyte injected over antibodies captured on a protein A/G chip (Biacore); also called CD32b
T1 sequence (looked up): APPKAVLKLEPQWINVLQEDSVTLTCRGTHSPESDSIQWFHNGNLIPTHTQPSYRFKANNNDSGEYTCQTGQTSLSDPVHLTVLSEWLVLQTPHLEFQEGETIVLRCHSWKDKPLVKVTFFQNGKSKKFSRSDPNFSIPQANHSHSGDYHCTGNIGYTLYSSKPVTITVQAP

B1: H268D/K326D/L328Y (antibody, human IgG1, kappa)
heavy: EVQLVESGGGLVKPGGSLKLSCAASGYTFTSYVMHWVRQAPGKGLEWIGYINPYNDGTKYNEKFQGRVTISSDKSISTAYMELSSLRSEDTAMYYCARGTYYYGTRVFDYWGQGTLVTVSSASTKGPSVFPLAPSSKSTSGGTAALGCLVKDYFPEPVTVSWNSGALTSGVHTFPAVLQSSGLYSLSSVVTVPSSSLGTQTYICNVNHKPSNTKVDKKVEPKSCDKTHTCPPCPAPELLGGPSVFLFPPKPKDTLMISRTPEVTCVVVDVSDEDPEVKFNWYVDGVEVHNAKTKPREEQYNSTYRVVSVLTVLHQDWLNGKEYKCKVSNDAYPAPIEKTISKAKGQPREPQVYTLPPSREEMTKNQVSLTCLVKGFYPSDIAVEWESNGQPENNYKTTPPVLDSDGSFFLYSKLTVDKSRWQQGNVFSCSVMHEALHNHYTQKSLSLSPGK
light: DIVMTQSPATLSLSPGERATLSCRSSKSLQNVNGNTYLYWFQQKPGQSPQLLIYRMSNLNSGVPDRFSGSGSGTEFTLTISSLEPEDFAVYYCMQHLEYPITFGAGTKLEIKRTVAAPSVFIFPPSDEQLKSGTASVVCLLNNFYPREAKVQWKVDNALQSGNSQESVTEQDSKDSTYSLSSTLTLSKADYEKHKVYACEVTHQGLSSPVTKSFNRGEC
notes: HuAM4G7 IgG1 Fc variant
B2: H268D/L328F/I332E (antibody, human IgG1, kappa)
heavy: B1 heavy with D330K, Y332F, I336E
light: B1 light
notes: HuAM4G7 IgG1 Fc variant
B3: H268D/L328W/I332E (antibody, human IgG1, kappa)
heavy: B1 heavy with D330K, Y332W, I336E
light: B1 light
notes: HuAM4G7 IgG1 Fc variant
B4: H268D/L328Y (antibody, human IgG1, kappa)
heavy: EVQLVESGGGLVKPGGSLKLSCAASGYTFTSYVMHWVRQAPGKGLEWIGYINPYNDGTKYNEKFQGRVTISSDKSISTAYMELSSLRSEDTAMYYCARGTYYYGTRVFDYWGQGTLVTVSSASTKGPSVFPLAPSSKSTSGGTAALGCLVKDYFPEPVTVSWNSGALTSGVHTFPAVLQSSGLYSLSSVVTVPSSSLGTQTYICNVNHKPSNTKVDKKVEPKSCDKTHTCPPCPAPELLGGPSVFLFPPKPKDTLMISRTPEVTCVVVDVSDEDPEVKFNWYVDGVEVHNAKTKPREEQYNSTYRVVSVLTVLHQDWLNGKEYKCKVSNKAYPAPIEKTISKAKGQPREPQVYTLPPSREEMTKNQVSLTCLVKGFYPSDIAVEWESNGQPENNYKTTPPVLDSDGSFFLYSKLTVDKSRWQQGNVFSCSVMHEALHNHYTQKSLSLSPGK
light: B1 light
notes: HuAM4G7 IgG1 Fc variant
B5: H268D/L328Y/I332E (antibody, human IgG1, kappa)
heavy: B1 heavy with D330K, I336E
light: B1 light
notes: HuAM4G7 IgG1 Fc variant
B6: H268E/L328Y/I332E (antibody, human IgG1, kappa)
heavy: B1 heavy with D272E, D330K, I336E
light: B1 light
notes: HuAM4G7 IgG1 Fc variant
B7: K326A (antibody, human IgG1, kappa)
heavy: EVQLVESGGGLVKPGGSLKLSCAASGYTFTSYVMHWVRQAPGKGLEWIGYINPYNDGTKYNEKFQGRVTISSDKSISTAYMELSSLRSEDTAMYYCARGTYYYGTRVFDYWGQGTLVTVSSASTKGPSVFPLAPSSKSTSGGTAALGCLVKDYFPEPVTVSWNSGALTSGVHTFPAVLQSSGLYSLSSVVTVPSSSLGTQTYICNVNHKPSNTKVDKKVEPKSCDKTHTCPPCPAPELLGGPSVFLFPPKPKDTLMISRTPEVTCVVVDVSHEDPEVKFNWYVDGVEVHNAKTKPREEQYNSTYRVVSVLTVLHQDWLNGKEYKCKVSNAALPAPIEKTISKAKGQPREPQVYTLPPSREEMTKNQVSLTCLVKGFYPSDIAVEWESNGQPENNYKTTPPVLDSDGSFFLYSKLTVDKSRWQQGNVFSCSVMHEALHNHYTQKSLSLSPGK
light: B1 light
notes: HuAM4G7 IgG1 Fc variant
B8: K326D/L328Y/I332E (antibody, human IgG1, kappa)
heavy: B1 heavy with D272H, I336E
light: B1 light
notes: HuAM4G7 IgG1 Fc variant
B9: K326E (antibody, human IgG1, kappa)
heavy: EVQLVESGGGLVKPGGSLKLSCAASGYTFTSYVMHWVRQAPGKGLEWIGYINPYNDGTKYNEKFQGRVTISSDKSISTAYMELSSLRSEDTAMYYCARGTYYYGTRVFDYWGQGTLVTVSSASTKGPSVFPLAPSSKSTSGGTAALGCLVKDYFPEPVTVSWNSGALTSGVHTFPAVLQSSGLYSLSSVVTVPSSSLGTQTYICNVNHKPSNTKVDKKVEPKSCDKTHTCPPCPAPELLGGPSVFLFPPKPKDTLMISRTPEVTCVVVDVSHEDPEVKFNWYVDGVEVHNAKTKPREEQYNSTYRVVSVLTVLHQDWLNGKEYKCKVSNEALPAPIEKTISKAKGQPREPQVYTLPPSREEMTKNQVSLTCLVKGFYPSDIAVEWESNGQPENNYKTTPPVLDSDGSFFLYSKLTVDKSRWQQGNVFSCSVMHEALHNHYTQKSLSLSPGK
light: B1 light
notes: HuAM4G7 IgG1 Fc variant
B10: K326W (antibody, human IgG1, kappa)
heavy: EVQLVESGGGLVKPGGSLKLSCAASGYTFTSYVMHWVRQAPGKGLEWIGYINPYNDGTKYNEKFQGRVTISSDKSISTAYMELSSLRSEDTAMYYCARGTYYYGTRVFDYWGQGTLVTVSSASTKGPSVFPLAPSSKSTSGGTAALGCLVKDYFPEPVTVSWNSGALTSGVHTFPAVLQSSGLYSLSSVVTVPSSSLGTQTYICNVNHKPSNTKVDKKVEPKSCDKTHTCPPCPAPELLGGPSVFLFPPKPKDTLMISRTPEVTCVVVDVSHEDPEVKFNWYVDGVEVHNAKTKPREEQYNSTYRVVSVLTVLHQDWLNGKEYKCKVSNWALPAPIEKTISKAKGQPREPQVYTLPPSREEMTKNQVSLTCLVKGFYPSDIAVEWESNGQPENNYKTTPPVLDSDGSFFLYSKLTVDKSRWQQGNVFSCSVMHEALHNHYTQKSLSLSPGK
light: B1 light
notes: HuAM4G7 IgG1 Fc variant
B11: L234E/H268D (antibody, human IgG1, kappa)
heavy: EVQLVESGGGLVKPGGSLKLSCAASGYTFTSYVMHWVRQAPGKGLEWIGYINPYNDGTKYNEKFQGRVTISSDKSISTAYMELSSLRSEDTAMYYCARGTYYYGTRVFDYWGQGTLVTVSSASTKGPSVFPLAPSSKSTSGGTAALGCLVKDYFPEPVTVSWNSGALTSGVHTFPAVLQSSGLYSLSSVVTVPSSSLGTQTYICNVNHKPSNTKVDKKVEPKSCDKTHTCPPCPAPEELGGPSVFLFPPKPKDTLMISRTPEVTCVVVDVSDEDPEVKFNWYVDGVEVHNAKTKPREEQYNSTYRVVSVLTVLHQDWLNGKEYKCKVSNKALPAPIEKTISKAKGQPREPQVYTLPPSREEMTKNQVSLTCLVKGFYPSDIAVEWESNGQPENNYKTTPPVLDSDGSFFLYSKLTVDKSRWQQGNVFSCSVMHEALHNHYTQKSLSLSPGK
light: B1 light
notes: HuAM4G7 IgG1 Fc variant
B12: L234F/G236N (antibody, human IgG1, kappa)
heavy: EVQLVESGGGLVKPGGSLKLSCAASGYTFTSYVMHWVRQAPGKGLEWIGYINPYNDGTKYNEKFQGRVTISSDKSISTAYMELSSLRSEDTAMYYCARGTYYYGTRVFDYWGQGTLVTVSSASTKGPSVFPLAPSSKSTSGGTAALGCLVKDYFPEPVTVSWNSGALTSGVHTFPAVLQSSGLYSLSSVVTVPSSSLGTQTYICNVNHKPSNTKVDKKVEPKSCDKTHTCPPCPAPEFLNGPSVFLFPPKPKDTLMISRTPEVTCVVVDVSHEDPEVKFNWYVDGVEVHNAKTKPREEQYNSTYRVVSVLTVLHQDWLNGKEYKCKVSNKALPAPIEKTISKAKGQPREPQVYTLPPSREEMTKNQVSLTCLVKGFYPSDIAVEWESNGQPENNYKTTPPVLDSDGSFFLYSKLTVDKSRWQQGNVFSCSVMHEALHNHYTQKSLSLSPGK
light: B1 light
notes: HuAM4G7 IgG1 Fc variant
B13: L234W/H268D/L328Y (antibody, human IgG1, kappa)
heavy: B1 heavy with L238W, D330K
light: B1 light
notes: HuAM4G7 IgG1 Fc variant
B14: L234W/L328Y/I332E (antibody, human IgG1, kappa)
heavy: B1 heavy with L238W, D272H, D330K, I336E
light: B1 light
notes: HuAM4G7 IgG1 Fc variant
B15: L234W/S239D/L328Y (antibody, human IgG1, kappa)
heavy: B1 heavy with L238W, S243D, D272H, D330K
light: B1 light
notes: HuAM4G7 IgG1 Fc variant
B16: L235D/S239D (antibody, human IgG1, kappa)
heavy: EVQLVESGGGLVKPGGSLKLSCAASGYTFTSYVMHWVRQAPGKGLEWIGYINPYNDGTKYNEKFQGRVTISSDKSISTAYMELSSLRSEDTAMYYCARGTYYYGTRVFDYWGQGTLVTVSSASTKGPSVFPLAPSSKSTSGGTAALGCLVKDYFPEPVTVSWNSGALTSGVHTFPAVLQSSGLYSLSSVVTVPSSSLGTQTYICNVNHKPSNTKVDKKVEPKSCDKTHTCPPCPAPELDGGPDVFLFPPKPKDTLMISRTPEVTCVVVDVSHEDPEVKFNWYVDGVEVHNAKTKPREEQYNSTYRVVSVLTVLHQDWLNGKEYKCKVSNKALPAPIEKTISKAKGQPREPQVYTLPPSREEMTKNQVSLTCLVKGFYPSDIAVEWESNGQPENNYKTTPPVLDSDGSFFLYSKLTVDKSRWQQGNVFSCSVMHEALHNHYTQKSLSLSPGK
light: B1 light
notes: HuAM4G7 IgG1 Fc variant
B17: L235F/H268D/L328Y (antibody, human IgG1, kappa)
heavy: B1 heavy with L239F, D330K
light: B1 light
notes: HuAM4G7 IgG1 Fc variant
B18: L235F/L328Y/I332E (antibody, human IgG1, kappa)
heavy: B1 heavy with L239F, D272H, D330K, I336E
light: B1 light
notes: HuAM4G7 IgG1 Fc variant
B19: L235F/S239D/L328Y (antibody, human IgG1, kappa)
heavy: B1 heavy with L239F, S243D, D272H, D330K
light: B1 light
notes: HuAM4G7 IgG1 Fc variant
B20: L235W (antibody, human IgG1, kappa)
heavy: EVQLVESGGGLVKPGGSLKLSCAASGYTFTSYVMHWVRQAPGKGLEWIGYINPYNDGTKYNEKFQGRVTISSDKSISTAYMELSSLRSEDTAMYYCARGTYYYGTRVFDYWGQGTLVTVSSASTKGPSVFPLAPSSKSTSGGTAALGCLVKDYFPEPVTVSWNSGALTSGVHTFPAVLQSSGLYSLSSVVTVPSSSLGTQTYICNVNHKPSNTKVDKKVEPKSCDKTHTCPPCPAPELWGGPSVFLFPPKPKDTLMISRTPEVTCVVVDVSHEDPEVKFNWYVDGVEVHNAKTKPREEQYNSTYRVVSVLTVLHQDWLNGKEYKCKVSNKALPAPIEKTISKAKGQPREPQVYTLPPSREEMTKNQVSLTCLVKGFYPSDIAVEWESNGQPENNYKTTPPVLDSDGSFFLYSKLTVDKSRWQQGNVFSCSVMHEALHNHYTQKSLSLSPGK
light: B1 light
notes: HuAM4G7 IgG1 Fc variant
B21: L235Y/S267D (antibody, human IgG1, kappa)
heavy: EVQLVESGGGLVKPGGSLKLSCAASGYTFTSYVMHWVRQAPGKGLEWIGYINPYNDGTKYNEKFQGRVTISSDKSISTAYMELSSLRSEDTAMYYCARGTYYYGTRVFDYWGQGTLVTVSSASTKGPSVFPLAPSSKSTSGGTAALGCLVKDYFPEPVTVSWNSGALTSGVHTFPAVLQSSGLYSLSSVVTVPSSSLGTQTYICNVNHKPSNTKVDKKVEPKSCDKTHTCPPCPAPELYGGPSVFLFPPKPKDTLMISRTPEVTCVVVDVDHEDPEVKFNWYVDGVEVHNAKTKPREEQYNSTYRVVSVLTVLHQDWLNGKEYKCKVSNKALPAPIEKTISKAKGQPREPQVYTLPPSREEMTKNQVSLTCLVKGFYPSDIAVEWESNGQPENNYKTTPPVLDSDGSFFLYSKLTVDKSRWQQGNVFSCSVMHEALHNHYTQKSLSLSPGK
light: B1 light
notes: HuAM4G7 IgG1 Fc variant
B22: L328E (antibody, human IgG1, kappa)
heavy: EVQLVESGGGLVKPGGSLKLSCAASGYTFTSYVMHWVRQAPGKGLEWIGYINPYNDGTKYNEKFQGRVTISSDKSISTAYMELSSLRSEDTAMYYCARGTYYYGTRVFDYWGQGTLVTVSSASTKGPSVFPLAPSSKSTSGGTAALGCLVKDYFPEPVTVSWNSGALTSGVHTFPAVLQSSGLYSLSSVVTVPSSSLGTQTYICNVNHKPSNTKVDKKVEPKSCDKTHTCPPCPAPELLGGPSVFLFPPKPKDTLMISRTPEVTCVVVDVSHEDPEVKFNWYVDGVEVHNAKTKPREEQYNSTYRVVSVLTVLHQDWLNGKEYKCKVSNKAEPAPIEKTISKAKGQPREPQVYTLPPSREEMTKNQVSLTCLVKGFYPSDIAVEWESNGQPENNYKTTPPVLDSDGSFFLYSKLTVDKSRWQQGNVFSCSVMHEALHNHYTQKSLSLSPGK
light: B1 light
notes: HuAM4G7 IgG1 Fc variant
B23: L328Y/I332E (antibody, human IgG1, kappa)
heavy: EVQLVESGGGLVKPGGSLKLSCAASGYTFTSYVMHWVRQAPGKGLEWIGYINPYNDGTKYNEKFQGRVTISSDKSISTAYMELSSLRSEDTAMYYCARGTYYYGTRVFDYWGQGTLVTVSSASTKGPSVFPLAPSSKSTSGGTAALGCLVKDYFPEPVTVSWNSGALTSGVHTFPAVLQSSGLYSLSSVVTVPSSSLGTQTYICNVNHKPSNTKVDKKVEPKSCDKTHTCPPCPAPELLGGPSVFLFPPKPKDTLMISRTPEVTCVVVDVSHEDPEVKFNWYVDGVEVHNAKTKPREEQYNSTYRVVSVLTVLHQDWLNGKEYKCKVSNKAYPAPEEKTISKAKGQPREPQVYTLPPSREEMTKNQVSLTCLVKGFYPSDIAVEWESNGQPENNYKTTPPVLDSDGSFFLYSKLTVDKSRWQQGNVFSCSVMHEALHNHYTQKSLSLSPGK
light: B1 light
notes: HuAM4G7 IgG1 Fc variant
B24: P331S (antibody, human IgG1, kappa)
heavy: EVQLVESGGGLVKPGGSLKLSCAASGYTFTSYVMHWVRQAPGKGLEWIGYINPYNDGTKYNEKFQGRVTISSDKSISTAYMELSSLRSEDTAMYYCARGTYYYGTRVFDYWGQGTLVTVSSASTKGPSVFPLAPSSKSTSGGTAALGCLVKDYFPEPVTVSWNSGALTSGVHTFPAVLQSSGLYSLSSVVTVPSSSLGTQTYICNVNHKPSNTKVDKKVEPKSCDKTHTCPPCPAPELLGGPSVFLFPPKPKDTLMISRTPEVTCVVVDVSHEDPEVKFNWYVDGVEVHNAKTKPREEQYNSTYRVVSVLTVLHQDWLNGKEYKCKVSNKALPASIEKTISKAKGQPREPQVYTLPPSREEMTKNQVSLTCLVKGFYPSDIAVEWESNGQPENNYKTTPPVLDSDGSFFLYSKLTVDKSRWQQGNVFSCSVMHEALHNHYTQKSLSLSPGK
light: B1 light
notes: HuAM4G7 IgG1 Fc variant
B25: S239D/A327D/L328Y (antibody, human IgG1, kappa)
heavy: B1 heavy with S243D, D272H, D330K, A331D
light: B1 light
notes: HuAM4G7 IgG1 Fc variant
B26: S239D/H268D (antibody, human IgG1, kappa)
heavy: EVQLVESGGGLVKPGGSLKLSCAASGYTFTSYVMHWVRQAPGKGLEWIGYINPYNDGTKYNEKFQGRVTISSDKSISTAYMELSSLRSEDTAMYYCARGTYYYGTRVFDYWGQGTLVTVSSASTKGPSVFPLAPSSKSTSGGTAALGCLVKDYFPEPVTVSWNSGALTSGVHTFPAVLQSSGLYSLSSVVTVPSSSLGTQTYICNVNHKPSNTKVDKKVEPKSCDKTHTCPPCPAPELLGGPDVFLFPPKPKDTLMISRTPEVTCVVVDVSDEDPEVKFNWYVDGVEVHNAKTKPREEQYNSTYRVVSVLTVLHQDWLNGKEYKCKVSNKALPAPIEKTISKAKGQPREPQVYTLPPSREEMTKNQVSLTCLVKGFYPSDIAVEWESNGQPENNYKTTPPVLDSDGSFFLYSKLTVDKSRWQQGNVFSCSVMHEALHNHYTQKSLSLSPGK
light: B1 light
notes: HuAM4G7 IgG1 Fc variant

biological target: T1, human FcγRIIb receptor protein (R&D …); assay: SPR (Biacore)
Experimental: Variants were screened for receptor affinity using Biacore™ technology, also referred to as Biacore herein, a surface plasmon resonance (SPR) based technology for studying biomolecular interactions in real time. SPR measurements were performed using a Biacore 3000 instrument (Biacore, Piscataway, N.J.). A protein A/G (Pierce Biotechnology) CM5 biosensor chip (Biacore) was generated using a standard primary amine coupling protocol. All measurements were performed using HBS-EP buffer (10 mM HEPES pH 7.4, 0.15 M NaCl, 3 mM EDTA, 0.005% vol/vol surfactant P20, Biacore). Antibodies at 20 nM or 50 nM in HBS-EP buffer were immobilized on the protein A/G surface and FcγRs were injected. After each cycle, the surface was regenerated by injecting glycine buffer (10 mM, pH 1.5). Data were processed by zeroing time and response before the injection of FcγR and by subtracting appropriate nonspecific signals (response of reference channel and injection of running buffer). Kinetic analyses were performed by global fitting of binding data with a 1:1 Langmuir binding model using BIAevaluation software (Biacore).

In order of rising “Fold FcγRIIb” value:
1. B24  0.0372 fold
2. B4  1.91 fold
3. B23  2.08 fold
4. B8  2.65 fold
5. B10  3.04 fold
6. B18  3.31 fold
7. B17  3.97 fold
8. B16  4.11 fold
9. B5  4.89 fold
10. B11  5.89 fold
11. B13  5.92 fold
12. B9  6.09 fold
13. B14  6.32 fold
14. B19  6.82 fold
15. B6  8.53 fold
16. B25  11.9 fold
17. B2  12.3 fold
18. B26  14.4 fold
19. B21  15.9 fold
20. B1  18.6 fold
21. B15  32.8 fold
22. B3  39.8 fold

B7: no binding.
B12: no binding.
B20: no binding.
B22: no binding.
